From the supplement of paper PMC10126150
± gives the standard deviation of the averaged measurements.

System: ATP
Test: switch fluorescence ratio, 500 uM ATP over buffer (Cy3 cluster intensity, sum of 5 cycles each) (fold (ratio)); higher = stronger signal-on switching upon ATP binding; sequences stand for … in TCGTCGGCAGCGTCAGATGTGTATAAGAGACAGTTTTTTTTTTTTTTTTTTTTTTTTT…TC
Conditions: aptamer strand: ATP DNA aptamer (quencher-CACCTGGGGGAGTATTGCGGAGGAAGG + anchor), 100 nM annealed; ATP concentration: 500 uM
Method in brief: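 Five buffer/ATP imaging cycles were run on Cy3-labelled switching-strand clusters on a modified Illumina MiSeq flow-cell, with NaOH stripping and re-annealing between cycles. In each cycle, clusters annealed to 100 nM quencher-labelled ATP aptamer were imaged in selection buffer, then after 15 min with 500 uM ATP at 22 °C. Per cluster, the fluorescence ratio is summed target-cycle over summed buffer-cycle Cy3 intensity, averaged per switch-domain sequence. Only clusters within 100-1000 RFU were kept.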
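Note: ATP exposure 15 min at 22 °C before imaging.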

Sequence	switch fluorescence ratio
TGGCTCTCAT	1.02 ± 0.017
TGGCTGTTGA	1.01 ± 0.018
TGGCTTTGGT	0.9862 ± 0.0046
TGGCTTTTAC	1.09 ± 0.056
TGGGAAAAGA	0.983 ± 0.017
TGGGAAACGT	1.09 ± 0.027
TGGGAAAGAA	1.04 ± 0.068
TGGGAAAGGA	1.01 ± 0.051
TGGGAAAGGT	0.994 ± 0.025
TGGGAAATCA	0.993 ± 0.048
TGGGAAATGT	1.1 ± 0.23
TGGGAAATTA	0.999 ± 0.024
TGGGAAGGAT	1.006 ± 0.0016
TGGGAAGGGC	1.02 ± 0.03
TGGGACACTG	0.972 ± 0.035
TGGGACCCCC	1.34 ± 0.47
TGGGACGTGG	0.9812 ± 0.0086
TGGGAGAAAA	1.0069 ± 0.00087
TGGGAGAAAT	2.39 ± 2.4
TGGGAGACGG	1.2 ± 0.38
TGGGAGATGT	0.993 ± 0.015
TGGGAGGACG	0.97 ± 0.038
TGGGAGGCGT	0.992 ± 0.02

Sequence	switch fluorescence ratio
TGGGAGGGAG	0.987 ± 0.028
TGGGAGGGTG	1.02 ± 0.067
TGGGAGTTCC	1.04 ± 0.036
TGGGATAAGT	1.01 ± 0.018
TGGGATATAG	0.994 ± 0.022
TGGGATATTA	0.9995 ± 0.007
TGGGATCAAG	1 ± 0.032
TGGGATGGGG	1.01 ± 0.037
TGGGATTCGG	1.03 ± 0.092
TGGGATTTAG	1 ± 0.044
TGGGATTTTC	1.03 ± 0.067
TGGGCAATTT	1.09 ± 0.036
TGGGCAGAGG	1.01 ± 0.024
TGGGCAGGAC	1.41 ± 0.49
TGGGCAGGGA	0.9817 ± 0.0024
TGGGCATATA	0.996 ± 0.012
TGGGCCAAGC	0.995 ± 0.025
TGGGCCCGGC	1.02 ± 0.053
TGGGCGAATC	0.998 ± 0.014
TGGGCGGGA	1 ± 0.03
TGGGCTATTT	0.964 ± 0.017
TGGGCTCTGT	0.978 ± 0.044
TGGGCTTCGG	0.9689 ± 0.0093

Sequence	switch fluorescence ratio
TGGGCTTGTT	0.999 ± 0.036
TGGGGAACGG	0.981 ± 0.031
TGGGGAAGGT	0.994 ± 0.022
TGGGGAATCT	1.02 ± 0.016
TGGGGAGAGC	0.992 ± 0.019
TGGGGAGGTT	0.97 ± 0.044
TGGGGATTGG	1.17 ± 0.49
TGGGGATTTT	0.998 ± 0.063
TGGGGCGAAG	1.01 ± 0.026
TGGGGCGGGT	1.02 ± 0.017
TGGGGCGTCT	1.01 ± 0.043
TGGGGCTGCC	0.969 ± 0.039
TGGGGCTTCA	1.01 ± 0.028
TGGGGGAAA	0.988 ± 0.04
TGGGGGAAAC	1.01 ± 0.032
TGGGGGAACC	1.004 ± 0.0099
TGGGGGACGT	0.999 ± 0.045
TGGGGGAGCG	0.99 ± 0.019
TGGGGGAGGT	1 ± 0.027
TGGGGGCCAA	0.965 ± 0.012
TGGGGGCCCT	0.996 ± 0.026
TGGGGGCGCC	0.982 ± 0.041
TGGGGGCGGT	0.996 ± 0.028

Sequence	switch fluorescence ratio
TGGGGGCGTT	1 ± 0.034
TGGGGGGACA	0.985 ± 0.015
TGGGGGGCCG	1.06 ± 0.19
TGGGGGGCTT	0.989 ± 0.023
TGGGGGTGGA	1.01 ± 0.046
TGGGGGTGTT	1 ± 0.032
TGGGGGTTGC	0.982 ± 0.042
TGGGGGTTTC	0.975 ± 0.053
TGGGGTACCT	1.08 ± 0.077
TGGGGTACTA	0.975 ± 0.069
TGGGGTATTA	0.998 ± 0.018
TGGGGTCGGG	1 ± 0.022
TGGGGTCGTC	1.038 ± 0.0087
TGGGGTCGTG	0.964 ± 0.022
TGGGGTGCAC	0.957 ± 0.024
TGGGGTTATC	0.9931 ± 0.0079
TGGGGTTATG	0.984 ± 0.019
TGGGGTTG	0.993 ± 0.018
TGGGGTTGAG	0.984 ± 0.019
TGGGGTTGAT	0.968 ± 0.033
TGGGGTTTCA	1 ± 0.012
TGGGGTTTCC	1.16 ± 0.32
TGGGTAAACA	1.02 ± 0.012

Sequence	switch fluorescence ratio
TGGGTAACGT	0.987 ± 0.033
TGGGTAAGGC	0.961 ± 0.08
TGGGTAATGC	1.27 ± 0.13
TGGGTAATTG	1.01 ± 0.019
TGGGTACAGT	1.03 ± 0.05
TGGGTAGGTT	1.06 ± 0.035
TGGGTATAGG	0.975 ± 0.016
TGGGTCCGTT	1.01 ± 0.036
TGGGTCTCTA	1 ± 0.018
TGGGTCTTGG	0.9835 ± 0.0057
TGGGTGCCGT	1.04 ± 0.034
TGGGTGGAGG	1.02 ± 0.043
TGGGTGGCAA	1.03 ± 0.05
TGGGTGGGAA	1.02 ± 0.04
TGGGTGGGGG	1 ± 0.024
TGGGTGGTCT	0.9972 ± 0.0054
TGGGTGGTTT	1.02 ± 0.019
TGGGTGTGCT	1.01 ± 0.03
TGGGTGTTGC	0.941 ± 0.083
TGGGTGTTTG	1.03 ± 0.038
TGGGTTAAAG	0.993 ± 0.016
TGGGTTAAGA	1.01 ± 0.034
TGGGTTAATG	0.9912 ± 0.0069

Sequence	switch fluorescence ratio
TGGGTTATCG	0.998 ± 0.025
TGGGTTCGAA	0.98 ± 0.013
TGGGTTGTTA	0.9852 ± 0.0095
TGGGTTTCT	1 ± 0.041
TGGGTTTCTG	1.02 ± 0.021
TGGGTTTCTT	1.016 ± 0.0055
TGGGTTTGAG	0.99 ± 0.035
TGGGTTTGAT	1.01 ± 0.041
TGGGTTTGTG	0.996 ± 0.033
TGGTAAAATT	1.031 ± 0.01
TGGTAAAGCA	1.06 ± 0.11
TGGTAAAGGT	0.985 ± 0.014
TGGTAATATT	0.962 ± 0.015
TGGTAGTTCG	1.01 ± 0.046
TGGTATAGGT	0.994 ± 0.038
TGGTATGGGG	1.03 ± 0.087
TGGTATGGGT	1.23 ± 0.33
TGGTATGTAG	1.02 ± 0.031
TGGTCCCCGG	0.997 ± 0.025
TGGTCCGCTA	1.755 ± 0.011
TGGTCCTAGG	1 ± 0.016
TGGTCGTCCG	0.971 ± 0.057
TGGTCGTTCT	1.03 ± 0.033

Sequence	switch fluorescence ratio
TGGTCGTTTT	1.01 ± 0.04
TGGTCTTCTC	1.16 ± 0.26
TGGTCTTTGT	1 ± 0.015
TGGTCTTTTT	0.995 ± 0.037
TGGTGAGATC	0.965 ± 0.0039
TGGTGAGGTG	1.02 ± 0.02
TGGTGATTAG	0.995 ± 0.023
TGGTGCTTGT	1.02 ± 0.024
TGGTGGAGGT	0.977 ± 0.011
TGGTGGCCTT	1.03 ± 0.032
TGGTGGCGTT	1.026 ± 0.0082
TGGTGGGGAT	0.985 ± 0.029
TGGTGGGGCG	1.11 ± 0.051
TGGTGGGGTC	1 ± 0.034
TGGTGGTAGG	0.984 ± 0.063
TGGTGGTCAG	0.98151 ± 0.00069
TGGTGGTGTG	0.983 ± 0.035
TGGTGGTTGT	1.02 ± 0.012
TGGTGTACTT	1.01 ± 0.012
